Test results published in IntAct's records for PubMed 28258151.

B1: Complement factor H (Homo sapiens), P08603 (parent)
chain: MRLLAKIICLMLWAICVAEDCNELPPRRNTEILTGSWSDQTYPEGTQAIYKCRPGYRSLGNVIMVCRKGEWVALNPLRKCQKRPCGHPGDTPFGTFTLTGGNVFEYGVKAVYTCNEGYQLLGEINYRECDTDGWTNDIPICEVVKCLPVTAPENGKIVSSAMEPDREYHFGQAVRFVCNSGYKIEGDEEMHCSDDGFWSKEKPKCVEISCKSPDVINGSPISQKIIYKENERFQYKCNMGYEYSERGDAVCTESGWRPLPSCEEKSCDNPYIPNGDYSPLRIKHRTGDEITYQCRNGFYPATRGNTAKCTSTGWIPAPRCTLKPCDYPDIKHGGLYHENMRRPYFPVAVGKYYSYYCDEHFETPSGSYWDHIHCTQDGWSPAVPCLRKCYFPYLENGYNQNYGRKFVQGKSIDVACHPGYALPKAQTTVTCMENGWSPTPRCIRVKTCSKSSIDIENGFISESQYTYALKEKAKYQCKLGYVTADGETSGSITCGKDGWSAQPTCIKSCDIPVFMNARTKNDFTWFKLNDTLDYECHDGYESNTGSTTGSIVCGYNGWSDLPICYERECELPKIDVHLVPDRKKDQYKVGEVLKFSCKPGFTIVGPNSVQCYHFGLSPDLPICKEQVQSCGPPPELLNGNVKEKTKEEYGHSEVVEYYCNPRFLMKGPNKIQCVDGEWTTLPVCIVEESTCGDIPELEHGWAQLSSPPYYYGDSVEFNCSESFTMIGHRSITCIHGVWTQLPQCVAIDKLKKCKSSNLIILEEHLKNKKEFDHNSNIRYRCRGKEGWIHTVCINGRWDPEVNCSMAQIQLCPPPPQIPNSHNMTTTLNYRDGEKVSVLCQENYLIQEGEEITCKDGRWQSIPLCVEKIPCSQPPQIEHGTINSSRSSQESYAHGTKLSYTCEGGFRISEENETTCYMGKWSSPPQCEGLPCKSPPEISHGVVAHMSDSYQYGEEVTYKCFEGFGIDGPAIAKCLGEKWSHPPSCIKTDCLSLPSFENAIPMGEKKDVYKAGEQVTYTCATYYKMDGASNVTCINSRWTGRPTCRDTSCVNPPTVQNAYIVSRQMSKYPSGERVRYQCRSPYEMFGDEEVMCLNGNWTEPPQCKDSTGKCGPPPPIDNGDITSFPLSVYAPASSVEYQCQNLYQLEGNKRITCRNGQWSEPPKCLHPCVISREIMENYNIALRWTAKQKLYSRTGESVEFVCKRGYRLSSRSHTLRTTCWDGKLEYPTCAKR

Variants of: B1
Details: with sdre_staam sdrE

Variant | effect of a mutation on the interaction
R1215A | with no effect
L1207A | decreasing interaction
T1213A | increasing interaction
C1218A | increasing interaction
H1212A | increasing interaction
P1226A | decreasing interaction
S1211A | decreasing interaction
T1216A | increasing interaction
E1224A | increasing interaction
Y1225A | increasing interaction
K1222A | with no effect
S1208A | disrupting interaction
L1223A | increasing interaction
W1219A | with no effect
D1220A | with no effect
S1209A | decreasing interaction
R1206A | disrupting interaction
R1210A | increasing interaction
T1217A | with no effect
L1214A | increasing interaction
